# According to the domain aggregation screens of Martell et al. (2025):
# Experiment: soluble fraction after stress (log2 fold change); higher = more stays soluble; pooled small domains, quantitative proteomics
# Settings: stress: pH 4
# Outline: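 Values are log2 fold changes, and higher ones mean more of the domain stayed soluble. Each fold change reflects the soluble amount of a domain after acid stress and is taken as a measure of aggregation propensity. The stress was pH 4, applied to pooled custom libraries of small protein domains analysed by high-throughput quantitative proteomics.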
row,Sequence,soluble fraction (log2)
1,HMAAEFERKNGIVYFFHSSEKPHLNYPHVHARYGEDTISISLRDFTVIGSFSSKKKQKEAVEYVKNK,-0.352
2,HMASVVEQVQVSNDISLFRQQNSPYWQARFKVAGKWYTRTTKRTEQTQAAFRAAELRSEVQTKISQGIPLR,-0.00738
3,HMYEDIDSAYRILEINSTVSNQEIKNAYRRMAKKYHPDKVAHLGVEHQKGAEEKFKKVQEAYILIKKRRG,-0.146
4,HMTNELTEIFNSIRLTKKQKELLQSNYLSLRETYFLQGKTAFNLKFKNIAGLGKSTKKVLLEFFEESIE,-0.499
5,HMDSHSAESVRQRIKDMIAAEASKSILSDDTIVENLKSEGIEIARRTVAKYRESLNIPSSIQRRRIARSEA,0.0843
6,HMEMPGGVMRTLSTIAYNQPVLQSKLVKVRGPRAYEDVHILRDMGLVSARSVGQTVELSTTPKFAEQF,0.102
7,HMQADPYTVLGVLRDVTDGELKREYRKLVREHHPDALIAQGVPQEFVDIANNKLAVINAAYERIAKQRGL,-0.293
8,HMRNGGHTVYRNNGSLFIVVRDGDKLESVASEFRVSPKKLIKYNDLDIHSNVKTGDMIYIRPKA,-0.124
9,HMYMKGKVKWFDSKKGYGFITSENGKEIFVHFSGIAAKGFKSLNEGQTVEFEVANGAKGEQAVNVTV,0.178
10,HMAPEKLVHELVGLSLRAGNLDLLAATLSAHKTVLSKESTAEYVKAGLAIEPNHLPLRVLAEQDLGWS,-0.936
11,HMEEHSLRKQEMLRIIEALEQLTPKEKTVVVLYYFKGVLFKDIAMLLDVTEGRISQLHTAAMGRLKKLMD,-0.632
12,HMALPDSEKRQWLVDEVNERGLKLPDDVLEYLFARVGRSQAHLVDVIEKLDFESLAQSRKLTIPFVREVLK,-0.753
13,HMKVNQFEVEGNQRYSTEEIAKASGVSKGDNLFLVNKTETARKLLDELAYVRSVNIKRKLPDTLVITVAE,0.331
14,HMEFFIIDHNGQQAGPFSFDQLVQKGISPETLVWKQGMADWNPAWKVEELKAVLEAVEANQSNQKAQ,-1.3
15,HMEKRLDYTFGLNKEQLLYLTKSIKDGDFYNVSFIDGTEKKLNRVGSTKEVHKYVNFLMTNDGIVKK,0.0133
16,HMGLTYEQILTDVQRFVTQNHADTLSNEGNPEEARKLLKDYILQYVQNRSYHVDGQTTEELVDSLYED,-1.13
17,HMNLTEIGQRIRDRREELGLSQDRLAKLGGLPRVTINQLETGSIGDLGVSKLLNLLDLLGLTLDA,-0.614
18,HMKVYIKDISDLSDKLKSLLIENDIDDSNKLFEVEDQVLLEIKGLGSKTIDKIKDIVTEYLKKNN,-0.38
19,HMGESFPYVAYATDSVRLRARPSSSATILTVIRKGDAVLITGADGSYKIVEYEGRKGYVVSAFLSSQET,-0.00452
20,HMQGRIYLNPDLAEKLRAQYAAYPHWSYLLHTENLGALVRKTESLGPMPSYSTILRYMHANDMRKRNKP,-0.149
21,HMANMTAKQINMFGDKLSRDKDFQSYYIAKSGDSREQYAQDIKGKLLDPFYVNAWMPYLEKIGFVPS,0.106
22,HMKEVDERPWGKYEVLLDAPDVKVKRITVNPGQRLSYQYHEKRAEVWTVVSGILTIILEDDKLFRG,0.0694
23,HMYDRIKLLKLREKRGLTQYELAEKAGISVVTLNKIETSDMAKPFASTLKKIALALGVGIEELS,0.22
24,HMTYGYFELKAKNLDSLKQFLKGIAQVESIEEENNGLKVFLKNELESEELSEKLAEAKIFVSHLAKKK,-0.617
25,HMSNLLKNILDVLEKEGPLKARKIALLLDSTRTTITHTTINSELYKALDLEGLTKNEQNIWSYVT,-0.389

row,Sequence,soluble fraction (log2)
1,HMSPSSPNQILGQYPKTKNDIILSSGRYGPYLKYNKKNYSLGNNISVEKLSLEEAVKIIDLKDKK,0.0926
2,HMEEKEIGQTLSVKIRENVLSKLDMTRDLEDEEVKHIIEHEIWLAAKKHYISLEERNSIKRGIFNSL,-0.773
3,HMNNKVAVKSGYYFEIFNKEEIPTTLAKTKQKVKINNIQYDLYQGMSLDDERKIDDMFGDRMGYSIDDY,-1.9
4,HMKIEDSNTIKLKANQAYKTHYYSEAIKLYDELLTKYEPNSEAIKLNLAHAHFKAKGFAAASKLYT,0.22
5,HMIENITIELNKKALALDFELNKDLPEGVLETIPTLVSLMVRFDPLTVSYHFLRDYIDALLESNLNVDL,-0.56
6,HMKTGNIITVSLVWKGKYYMIRMFFPSASRPTRSDVQNEIEKVYPGSKLSTFSVSDYEPGQPLLQV,-0.092
7,HMIINFDAIRLTTELNKYNRHKAIPNSFFDGTFTILDVRDLYDSLSPKVQKIADTLIEQYNVDVKQ,-1.22
8,HMSLIHEQSLKEIRIFINNLPESLRTAFTLREQDGLSYEEISKITDTPIGTVRSRIFRARESILEHINEEL,-0.599
9,HMETGGLAQEAERELALLQEQIAHHEALYRKGTPEISDGAFDELFDRYQELADSLGVPADERIDRA,-0.836
10,HMKALYNLDYEKPLSGSYYTETTARAAVPTDIRKLGLIITYKTDATTNITEQFVGSSISAWTTSGNWKSLG,0.105
11,HMDGVNRDKIEYRLDDLYYLKGSDAPYTGKVFEEWSGQQRVETNYIDGKLDGLSESWHENGQKASEVNY,-0.831
12,HMGIAKLLTEQEYKIALLAAERRTNAMIAEEMNLTENTVKTHLKHIFDKVGIAGNAKNKRHLLADMMNSER,0.0405
13,HMGPYGAGSAAPAEDGSGPEGWTVKGNAKSMLYHTEGSPYYGRTNADVWFRDEESAEAAGFRRWDRK,0.033
14,HMEVKEVDYSAFMTMTEENSISKVEIEENQILFKKKGDDQTTYKTARMDDPALITRLHDQGVDFTGQ,0.0244
15,HMNLTSNDAYSRILNAIITSELRPGDTVTEIQLAQKFGFGRTPVREAIMRLENEGFIVSAERKKRVYIL,-0.815
16,HMPEVYPFEVAEDDAGKRLDVFLSEEIEEFTRSFIQKLIAGGLASVNRAPARASYRVKPRDLVELQVPE,-0.158
17,HMDRSIGDIIAELRDLSAEQVERVLAHQRETGVRFGEAAVALGYASKEDVLFALSQQFHYPYAPEE,-0.946
18,HMSLLTPLEEARIVIEELIIPQKLTLDLLPQNSQIRKLQHEIINHYRLKGISIGDGKNRRVRIYS,-1.48
19,HMVEFLMESTNGMYGIVKEGSSYYVQKGINESSLDYIGGMFMKDKNRFSSYSTALKRLELISGQET,-0.497
20,HMTGTKEQQVVMLNNILQKQLQAFELQGKRDYPMVTMKNMYNTLSKMVENAGLQTVESYFVDPIKGQQM,-0.266
21,HMQAPAFDYSKVQEGVTVNHKIFGDGTVSWIDKARKYIRVQFSVGEKMFTMETAFVQGFLSL,-1.03
22,HMVANLPFNYKVYAKKGKLYVVISYKDSNGKYKKKWIRTGLDEGTKKKEVNTVADQIAAEYYSSMRLE,0.0398
23,HMAPTGTDRQTPHTRDELYLVLSGTGTFVNGDARHPFGPGDALFVPAGAEHRFEDFSDDFRTWVVFYGAEG,-0.734
24,HMNSEERVLDTASKWLVKLDEGLDESEAQVLKVWLATPLHRDTFLEMVALWDKMSVLNELADIV,-1.94
25,HMDDVYMVPVKDIAINDLKQEFEKLGIPNIQNTIPDKDLNFFIVRKDDLALVNYAIEKTMER,-0.523

row,Sequence,soluble fraction (log2)
1,HMHQAVTVTKPARLFTGPDGKGVVRSLDVGMMLYPTGEKQGMMWEVEDELGNKGWVSSTLLELS,0.197
2,HMFLPGETFDVKIVKIGEGENQGVGYLDDGTMIVIENGRDHLNELARVIVTRVLQNSAGQMIFSDYEE,-1.76
3,HMLGNIERALEMLQEVAATMDPVDIRLLLSMAQVESVRGNTEAAVKLIDEALVIDPGNERIEQIRLRVL,-0.869
4,HMRIDSFEDARRRFEYDYLTRLLKLTQGSVTQAAKLAKRNRTEFYKLLQRHGIEAAHFKPTS,≥ 0.43
5,HMKHEFSEEWLDWIKSNIADGQNKNGLFKVLLNHGYAYDAVREVMQYEPTVPLDELVDPLRA,-0.953
6,HMQAMDYEGFKKEILKMSDIDLSLYKEKQMKRRIDSLIRKNGYEHYEDYVQALKQDSGLYNEFINYLTI,-1.33
7,HMSGGIVRLAVKPWGEVFVDGASRGITPPLKQLTLDAGVHRIEIRNPAGPSWTKDVDVVAGQPTTVSHRF,0.0131
8,HMKYKKYKLLKDLPTFKAGQLAYISKTGNLIAGTPENQKTTETGLIIMIYHETTLKKFPNILTEWFEEIE,-1.17
9,HMASAAHYEGVKTEGESDNDVITRVLTATGVTAEKDDIFVVKSLIADGKYSYTAYVYDGSVWAAMD,-0.541
10,HMDAPIIRLLNSLVQRAVTTTASDIHIEPFEGETKVRMRIDGVIIDYVTLQRALHQPLIARIKIMSNLD,-0.237
11,HMTGENWAERSRQLAAAGLLVLGKEAQEKIASLPNLIPLIEAAAASDTRLLNAQTIDELLSFVPTEETI,-0.98
12,HMMVIMRANATEPQIANVVAYVEKNGLNAHLSRGAERTVIGVVGDIRRVSKETFELMDGVDSVMRIS,-0.734
13,HMGTKRWELPRRVQQMATQHGKSISTAAAEELVSRSGENTRMLDNDLVKLAQMVEAPQIELADVERWIVR,0.335
14,HMSDFSNLNLLELNSSELDLLLRRASSQGLTQMDLLKMARSQGLSEADLIKVKGKIDTSESIKR,-0.0416
15,HMSNEEEIEGLVSKVLDNNPEIVERIRSGEDKLISYLVGEVMKQSSSSLNPGIVKEIIVNKTI,-0.154
16,HMLAVPADFAEKLQSLRSQLASDDLDASDAFGRLQPFIKALYPAQLEALRKAVDDFDFVEATRLIDQLPQ,-0.954
17,HMNVNVSFTQLRHKAEHAIQAKNWSEARNLLTLATLMRPTHRNVARRLKAVEQRNRLFRRLLLILTHRKV,-0.229
18,HMTDTSFPRLGAPEEELLSFLAKWEIDAEDAHYTKFSLYYQSTGKMMRDWKATWRAWKERQSELNAQR,-1.05
19,HMAETLLWADAAQEGLNRIVAAQPILVRISAAKRLRDASEQAAKAAGVSTVEIGHVQHASESLQFGDA,-0.0823
20,HMSQISKLWRPSEDVTEILTRSGMDSEFLEGLIPEFIIYWSERADVLVSYNSKFIEHARLKWAQHSAEIKT,-1.94
21,HMIGDYALILNIKGGSDWYLGNRVELLFTDGTSKIVTTDKDYNAKKDMVPTQIVTYKVNDNGEYSLKALPT,-1.2
22,HMPYSPTPGSAPARLIAHLQEHGDSVNRTAIAELLQVDRKNVHNYLARAVTHGLLLRHGGGAYSLP,0.207
23,HMNKYNNIEDLKEEDFENISEKYQVPVSFVKSKLDDLINWHEKNPQKNHYKNYLSALRDWVKRDSLKIKL,0.0178
24,HMAAQDLIVKTDASQVEARVLEISPDAVRYKRFSNPDGPTYVLPVAEIRYIRYANGEVEYYA,-0.207
25,HMPVSRMRARHEALARGVMGIHAGGFSAVYGYRKVWHGLIGKGWDPGEVGRDQVMNIMRGLGMQGVRR,0.22
